Consider 4 sequences from the supplement of paper PMC5998384.

For data set [1], the system named is HeLa Kyoto. Kind of data set: melting temperature (median over replicates), in situ; higher = more thermally stable.
For data set [2], the system named is HeLa Kyoto. Kind of data set: thermal stability score vs G1/S (z-score of summed log2 fold changes over temperatures); higher = more thermally stable than in G1/S.
The subject of data set [3] is HeLa Kyoto. Kind of data set: solubility in G1/S (NP-40 vs SDS abundance) (log2 ratio); higher = more soluble. The settings on record: cell cycle stage: G1/S.
Data set [4] has as its system HeLa Kyoto. Description: solubility change mitosis vs G1/S (difference of NP-40 vs SDS log2 ratios) (log2 ratio difference); higher = more soluble in mitosis.
Where [5] appears, read: cell cycle stage: early G1 (4.5 h after nocodazole release).
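For melting temperature (median over replicates), in situ in this document: HeLa Kyoto cells synchronized by double thymidine or nocodazole block, proteins quantified by TMT10plex mass spectrometry, three independent biological replicates.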
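For solubility change mitosis vs G1/S (difference of NP-40 vs SDS log2 ratios) in this document: synchronized HeLa Kyoto cells (double thymidine block for G1/S, nocodazole release for mitosis), protein amounts in NP-40 versus SDS lysates quantified by mass spectrometry, three biological replicates.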
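For solubility in G1/S (NP-40 vs SDS abundance) in this document: HeLa Kyoto cells arrested at G1/S by double thymidine block, proteins quantified by TMT10plex mass spectrometry in mild NP-40 versus SDS extracts, three biological replicates.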
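For thermal stability score vs G1/S (z-score of summed log2 fold changes over temperatures) in this document: synchronized HeLa Kyoto cells, proteins quantified by TMT10plex mass spectrometry, three biological replicates, mitosis taken 0.5 h after nocodazole release, G1/S directly after double thymidine block.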

Consider “MHPLQCVLQVQRSLGWGPLASVSWLSLRMCRAHSSLSSTMCPSPERQEDGARKDFSSRLAAGPTFQHFLKSASAPQEKLSSEVEDPPPYLMMDELLGRQRKVYLETYGCQMNVNDTEIAWSILQKSGYLRTSNLQEADVILLVTCSIREKAEQTIWNRLHQLKALKTRRPRSRVPLRIGILGCMAERLKEEILNREKMVDILAGPDAYRDLPRLLAVAESGQQAANVLLSLDETYADVMPVQTSASATSAFVSIMRGCDNMCSYCIVPFTRGRERSRPIASILEEVKKLSEQVFLPPRPPKVLGLQGLKEVTLLGQNVNSFRDNSEVQFNSAVPTNLSRGFTTNYKTKQGGLRFAHLLDQVSRVDPEMRIRFTSPHPKDFPDEVLQLIHERDNICKQIHLPAQSGSSRVLEAMRRGYSREAYVELVHHIRESIPGVSLSSDFIAGFCGETEEDHVQTVSLLREVQYNMGFLFAYSMRQKTRAYHRLKDDVPEEVKLRRLEELITIFREEATKANQTSVGCTQLVLVEGLSKRSATDLCGRNDGNLKVIFPDAEMEDVNNPGLRVRAQPGDYVLVKITSASSQTLRGHVLCRTTLRDSSAYC [CDK5RAP1]”, for which the melting temperature came to 50.6 °C in the data set on HeLa Kyoto [1] (cell cycle stage: G1/S) and 51 °C in the data set with HeLa Kyoto [1] (cell cycle stage: mitosis). For the same sequence, the thermal stability score with HeLa Kyoto [2] (setting [5]) was 0.115; in the data set with HeLa Kyoto [2] (cell cycle stage: mitosis), 0.734. For the same sequence, the “solubility in G1/S (log2)” value in the data set with HeLa Kyoto [3] was -0.0387. The “solubility change mitosis (log2)” value in the data set with HeLa Kyoto [4] was -0.0868.
As to “MSEREERRFVEIPRESVRLMAESTGLELSDEVAALLAEDVCYRLREATQNSSQFMKHTKRRKLTVEDFNRALRWSSVEAVCGYGSQEALPMRPAREGELYFPEDREVNLVELALATNIPKGCAETAVRVHVSYLDGKGNLAPQGSVPSAVSSLTDDLLKYYHQVTRAVLGDDPQLMKVALQDLQTNSKIGALLPYFVYVVSGVKSVSHDLEQLHRLLQVARSLFRNPHLCLGPYVRCLVGSVLYCVLEPLAASINPLNDHWTLRDGAALLLSHIFWTHGDLVSGLYQHILLSLQKILADPVRPLCCHYGAVVGLHALGWKAVERVLYPHLSTYWTNLQAVLDDYSVSNAQVKADGHKVYGAILVAVERLLKMKAQAAEPNRGGPGGRGCRRLDDLPWDSLLFQESSSGGGAEPSFGSGLPLPPGGAGPEDPSLSVTLADIYRELYAFFGDSLATRFGTGQPAPTAPRPPGDKKEPAAAPDSVRKMPQLTASAIVSPHGDESPRGSGGGGPASASGPAASESRPLPRVHRARGAPRQQGPGTGTRDVFQKSRFAPRGAPHFRFIIAGRQAGRRCRGRLFQTAFPAPYGPSPASRYVQKLPMIGRTSRPARRWALSDYSLYLPL [TAF6L]”, the melting temperature in the data set with HeLa Kyoto [1] (cell cycle stage: G1/S) was 49.3 °C; in the data set with HeLa Kyoto [1] (cell cycle stage: mitosis), 49.5 °C. In addition, the thermal stability score with HeLa Kyoto [2] (setting [5]) worked out at 0.603; in the data set with HeLa Kyoto [2] (cell cycle stage: mitosis) it was 1.02. In the data set on HeLa Kyoto [3], the “solubility in G1/S (log2)” value was found to be 0.0555. Also, in the data set with HeLa Kyoto [4], the “solubility change mitosis (log2)” value is -0.115.
As to “MSDHGDVSLPPEDRVRALSQLGSAVEVNEDIPPRRYFRSGVEIIRMASIYSEEGNIEHAFILYNKYITLFIEKLPKHRDYKSAVIPEKKDTVKKLKEIAFPKAEELKAELLKRYTKEYTEYNEEKKKEAEELARNMAIQQELEKEKQRVAQQKQQQLEQEQFHAFEEMIRNQELEKERLKIVQEFGKVDPGLGGPLVPDLEKPSLDVFPTLTVSSIQPSDCHTTVRPAKPPVVDRSLKPGALSNSESIPTIDGLRHVVVPGRLCPQFLQLASANTARGVETCGILCGKLMRNEFTITHVLIPKQSAGSDYCNTENEEELFLIQDQQGLITLGWIHTHPTQTAFLSSVDLHTHCSYQMMLPESVAIVCSPKFQETGFFKLTDHGLEEISSCRQKGFHPHSKDPPLFCSCSHVTVVDRAVTITDLR [STAMBP]”, the values for the melting temperature in the data set with HeLa Kyoto [1] (cell cycle stage: G1/S) and in the data set with HeLa Kyoto [1] (cell cycle stage: mitosis) were 48.6 °C and 49.7 °C, respectively. The results for the thermal stability score in the data set with HeLa Kyoto [2] (setting [5]) and with HeLa Kyoto [2] (cell cycle stage: mitosis) were 0.214 and 0.921, respectively. Moreover, in the data set on HeLa Kyoto [3], the “solubility in G1/S (log2)” value was 0.276. The “solubility change mitosis (log2)” value in the data set with HeLa Kyoto [4] was -0.118.
As for “MKAIKKSLTEEEYLYLDFSHQTEGCIFPLHTSVTLFLLSYCDCKIFKICLVVTKEVSRDSSLLRDDLIQDVEIQIISRQELPPIVQNCCLPAVVERSDNFCRAGLAVVLRHIIQKSYEADPLKKELLELLGFKKTCLKACAEVSQWTRLCELTIPLAIENFLRESSDQPPTIPVEILQLEKKLSEPVRVHNDDKLRRQKLKQQKADGVGPPLTKGKAKSKVHTQETSEGLDSSSKSLELKVAFSKLTVQEEPATTNREPSHIRKAKASDLPPLEHVFAEGLYFTLADIVLLPCIHHFLVIISRKFSEKLVEFPLLASWYQRIQEVPGVKTAASKCGIQFLHLPKLLTTSTEQHPNLCEVPGVEEQSDPLFIGGPRPTMAKLMEKGIEVMFSPHPCPTWTLDWNVLPAAVSPKEGKMSSDRALRKQQQLNNLVYVVTNQAKPGDRIVDFCSGGGHVGIVLAHMLPSCQVTLIENKELSLIRAKKRSDELGLSNIWFIQANMEYFTGMFNIGVALHACGVATDMVIEHCIKTRASFVTCPCCYGFIQNTSKFNFPKSEQFKKTLSYKEHMILCRFADQTAVQLPPQRRLIGKQCMCLVDLDRARAAEECGYSVQVISMEPESCSPKNNMIVGVPI [GSTCD]”, the results for the melting temperature with HeLa Kyoto [1] (cell cycle stage: G1/S) and in the data set on HeLa Kyoto [1] (cell cycle stage: mitosis) were 51.7 °C and 53.4 °C, respectively. Moreover, the thermal stability score in the data set with HeLa Kyoto [2] (setting [5]) was -0.282; in the data set on HeLa Kyoto [2] (cell cycle stage: mitosis) it was -1.67. In addition, the “solubility in G1/S (log2)” value with HeLa Kyoto [3] was -0.0129. Further, in the data set on HeLa Kyoto [4], the “solubility change mitosis (log2)” value was -0.116.
